The record followed here is the PETadex activity labels (doi:10.1021/bi00096a018).

One may read the Km as the concentration of substrate that gives half-maximal velocity. The kcat is the number of substrate molecules converted per active site and unit of time at saturation.

The labels stand for the following.
B1: unnamed (protein)
chain: MRPPWYPLHTPSLAFPLLFLLLSLLGGGARAEGREDPQLLVRVRGGQLRGIRLKAPGGPVSAFLGIPFAEPPVGSRRFMPPEPKRPWSGVLDATTFQNVCYQYVDTLYPGFEGTEMWNPNRELSEDCLYLNVWTPYPRPASPTPVLIWIYGGGFYSGAASLDVYDGRFLAQVEGAVLVSMNYRVGTFGFLALPGSREAPGNVGLLDQRLALQWVQENIAAFGGDPMSVTLFGESAGAASVGMHILSLPSRSLFHRAVLQSGTPNGPWATVSAGEARRRATLLARLVGCPPGGAGGNDTELIACLRTRPAQDLVDHEWHVLPQESIFRYSFVPVVDGDFLSDTPEALINTGDFQDLQVLVGVVKDEGSYFLVYGVPGFSKDNESLISRAQFLAGVRIGVPQASDLAAEAVVLHYTDWLHPEDPTHLRDAMSAVVGDHNVVCPVAQLAGRLAAQGARVYAYIFEHRASTLTWPLWMGVPHGYEIEFIFGLPLDPSLNYTTEERIFAQRLMKYWTNFARTGDPNDPRDSKSPQWPPYTTAAQQYVSLNLKPLEVRRGLRAQTCAFWNRFLPKLLSATDTLDEAERQWKAEFHRWSSYMVHWKNQFDHYSKQERCSDL
B2: unnamed (protein)
chain: MRPPWYPLHTPSLAFPLLFLLLSLLGGGARAEGREDPQLLVRVRGGQLRGIRLKAPGGPVSAFLGIPFAEPPVGSRRFMPPEPKRPWSGVLDATTFQNVCYQYVDTLYPGFEGTEMWNPNRELSEDCLYLNVWTPYPRPASPTPVLIWIYGGGFYSGAASLDVYDGRFLAQVEGAVLVSMNYRVGTFGFLALPGSREAPGNVGLLDQRLALQWVQENIAAFGGDPMSVTLFGESAGAASVGMHILSLPSRSLFHRAVLQSGTPNGPWATVSAGEARRRATLLARLVGCPPGGAGGNDTELIACLRTRPAQDLVDHEWHVLPQESIFRFSFGPVVDGDFLSDTPEALINTGDFQDLQVLVGVVKDEGSYFLVYGVPGFSKDNESLISRAQFLAGVRIGVPQASDLAAEAVVLHYTDWLHPEDPTHLRDAMSAVVGDHNVVCPVAQLAGRLAAQGARVYAYIFEHRASTLTWPLWMGVPHGYEIEFIFGLPLDPSLNYTTEERIFAQRLMKYWTNFARTGDPNDPRDSKSPQWPPYTTAAQQYVSLNLKPLEVRRGLRAQTCAFWNRFLPKLLSATDTLDEAERQWKAEFHRWSSYMVHWKNQFDHYSKQERCSDL
B3: unnamed (protein)
chain: MRPPWYPLHTPSLAFPLLFLLLSLLGGGARAEGREDPQLLVRVRGGQLRGIRLKAPGGPVSAFLGIPFAEPPVGSRRFMPPEPKRPWSGVLDATTFQNVCYQNVDTLYPGFEGTEMWNPNRELSEDCLYLNVWTPYPRPASPTPVLIWIYGGGFYSGAASLDVYDGRFLAQVEGAVLVSMNYRVGTFGFLALPGSREAPGNVGLLDQRLALQWVQENIAAFGGDPMSVTLFGESAGAASVGMHILSLPSRSLFHRAVLQSGTPNGPWATVSAGEARRRATLLARLVGCPPGGAGGNDTELIACLRTRPAQDLVDHEWHVLPQESIFRFSFVPVVDGDFLSDTPEALINTGDFQDLQVLVGVVKDEGSYFLVYGVPGFSKDNESLISRAQFLAGVRIGVPQASDLAAEAVVLHYTDWLHPEDPTHLRDAMSAVVGDHNVVCPVAQLAGRLAAQGARVYAYIFEHRASTLTWPLWMGVPHGYEIEFIFGLPLDPSLNYTTEERIFAQRLMKYWTNFARTGDPNDPRDSKSPQWPPYTTAAQQYVSLNLKPLEVRRGLRAQTCAFWNRFLPKLLSATDTLDEAERQWKAEFHRWSSYMVHWKNQFDHYSKQERCSDL
B4: unnamed (protein)
chain: MRPPWYPLHTPSLAFPLLFLLLSLLGGGARAEGREDPQLLVRVRGGQLRGIRLKAPGGPVSAFLGIPFAEPPVGSRRFMPPEPKRPWSGVLDATTFQNVCYQYVDTLYPGFEGTEMWNPNRELSEDCLYLNVWTPYPRPASPTPVLIWIYGGGFYSGAASLDVYDGRFLAQVEGAVLVSMNYRVGTFGFLALPGSREAPGNVGLLDQRLALQWVQENIAAFGGDPMSVTLFGESAGAASVGMHILSLPSRSLFHRAVLQSGTPNGPWATVSAGEARRRATLLARLVGCPPGGAGGNDTELIACLRTRPAQDLVDHEWHVLPQESIFRFSFVPVVDGDFLSDTPEALINTGDFQDLQVLVGVVKDEGSFFLVYGVPGFSKDNESLISRAQFLAGVRIGVPQASDLAAEAVVLHYTDWLHPEDPTHLRDAMSAVVGDHNVVCPVAQLAGRLAAQGARVYAYIFEHRASTLTWPLWMGVPHGYEIEFIFGLPLDPSLNYTTEERIFAQRLMKYWTNFARTGDPNDPRDSKSPQWPPYTTAAQQYVSLNLKPLEVRRGLRAQTCAFWNRFLPKLLSATDTLDEAERQWKAEFHRWSSYMVHWKNQFDHYSKQERCSDL
B5: unnamed (protein)
chain: MRPPWYPLHTPSLAFPLLFLLLSLLGGGARAEGREDPQLLVRVRGGQLRGIRLKAPGGPVSAFLGIPFAEPPVGSRRFMPPEPKRPWSGVLDATTFQNVCYQYVDTLYPGFEGTEMWNPNRELSEDCLYLNVWTPYPRPASPTPVLIWIYGGGFYSGAASLDVYDGRFLAQVEGAVLVSMNYRVGTFGFLALPGSREAPGNVGLLDQRLALQWVQENIAAFGGDPMSVTLFGESAGAASVGMHILSLPSRSLFHRAVLQSGTPNGPWATVSAGEARRRATLLARLVGCPPGGAGGNDTELIACLRTRPAQDLVDHERHVLPQESIFRFSFVPVVDGDFLSDTPEALINTGDFQDLQVLVGVVKDEGSYFLVYGVPGFSKDNESLISRAQFLAGVRIGVPQASDLAAEAVVLHYTDWLHPEDPTHLRDAMSAVVGDHNVVCPVAQLAGRLAAQGARVYAYIFEHRASTLTWPLWMGVPHGYEIEFIFGLPLDPSLNYTTEERIFAQRLMKYWTNFARTGDPNDPRDSKSPQWPPYTTAAQQYVSLNLKPLEVRRGLRAQTCAFWNRFLPKLLSATDTLDEAERQWKAEFHRWSSYMVHWKNQFDHYSKQERCSDL

Substrate in this series: Acetylcholine
The settings on record: pH 7; 22 °C.
On to B1, for which the Km was found to be 58 µM and the kcat came to 650 s⁻¹.

Turning to B2, the Km is 50 µM and the kcat came to 2670 s⁻¹.

As for B3, the Km was 110 µM and the kcat was 2170 s⁻¹.

Consider B4, for which the Km came to 53 µM and the kcat amounted to 1130 s⁻¹.

B5: the Km worked out at 420 µM and the catalytic constant (kcat) was found to be 2670 s⁻¹.
